Measured values: patent US20120045393A1 (priority 2009, published 2012)
Non-standard residues stand in square brackets, D forms with d. *: point of attachment. Bpa = N[C@@H](Cc1ccc(C(=O)c2ccccc2)cc1)C(=O)O; d1Nal = N[C@H](Cc1cccc2ccccc12)C(=O)O; d2Nal = N[C@H](Cc1ccc2ccccc2c1)C(=O)O; d3Pal = N[C@H](Cc1cccnc1)C(=O)O; His(1-Me) = 1-methylhistidine; DO3A10CM = not defined here; Nicotinoyl = O=C(c1cccnc1)*; Bzgly = not defined here; dCfe4 = not defined here; Afe4 = not defined here; azaGly = NNC(=O)O; Sar = CNCC(=O)O; iPr = CC(C)*

Columns and labels:
[1] = target: LHRH receptor (LHRH binding sites) on EFO-27 human ovarian cancer cells (human); experiment: competition with [125I-Tyr8]BRU-2477 for binding to EFO-27 cells
[2] = target: LHRH receptor (LHRH binding sites) on EFO-27 human ovarian cancer cells (human); experiment: competition with [125I-Tyr8]BRU-2477, EFO-27 cells
[3] = target: LHRH receptor (LHRH binding sites) on EFO-27 human ovarian cancer cells (human); experiment: direct binding of 177Lu-labeled peptide to EFO-27 cells, single concentration
[4] = target: LHRH binding sites on EFO-27 human ovarian cancer cells (human); experiment: competition with [125I-Tyr8]BRU-2477 on EFO-27 cells

Binder	EC50 [1] [µM]	EC50 [2] [µM]	% Bound [3] [%]	other results
XRWSHXWXP (Sar at 1; Darg at 6; Bpa4 at 8; C-terminal Da15o3pt linker carrying DO3A10CM) [BRU-3039]	0.28	0.28		
XXRWSHXWXPX (N-terminal DO3A10CM; Dlys linker before 1; Dnal2 at 1; Darg at 6; Bpa4 at 8; azaGly-NH2 at 10) [BRU-3099]	0.44	0.44		
XXRWSHXWXPX (N-terminal DO3A10CM; Dap linker before 1; Dnal2 at 1; Darg at 6; Bpa4 at 8; azaGly-NH2 at 10) [BRU-3096]	0.37	0.37		
KXRWSHXWXPX (N-terminal DO3A10CM; Lys linker before 1; Dnal2 at 1; Darg at 6; Bpa4 at 8; azaGly-NH2 at 10) [BRU-3097]	0.45	0.45		
XHWSHXWXPX (177Lu held by the N-terminal DO3A10CM: 177Lu-DO3A10CM-Dnal1-His-Trp-Ser-His-Darg-Trp-Bpa4-Pro-azaGly-NH2) [^177Lu-BRU-2869]			9.2	
XHWSHXWXPX (177Lu held by the N-terminal DO3A10CM: 177Lu-DO3A10CM-Sar-His-Trp-Ser-His-Darg-Trp-F5fe-Pro-azaGly-NH2) [^177Lu-BRU-2722]			0.36	
XHWSHXWXPX (177Lu held by the N-terminal DO3A10CM: 177Lu-DO3A10CM-Dafe4-His-Trp-Ser-His-Darg-Trp-Bpa4-Pro-azaGly-NH2) [^177Lu-BRU-2810]			2.4	
XXRWSHXWXPX (N-terminal DO3A10CM; Gly-Abz4 linker before 1; Dnal2 at 1; Darg at 6; Bpa4 at 8; azaGly-NH2 at 10) [BRU-3002]	0.5	0.5		
XHWSHXWXPX (177Lu held by the N-terminal DO3A10CM: 177Lu-DO3A10CM-Sar-His-Trp-Ser-His-Darg-Trp-Tha-Pro-azaGly-NH2) [^177Lu-BRU-2742]			0.125	
DO3A10CM-G[Bzgly]HWSH[dR]W[Bpa]P[azaGly]-NH2 (reading uncertain; also: 177Lu complexed by DO3A10CM, printed as 177Lu-DO3A10CM-Gly-Bzgly-His-Trp-Ser-His-Darg-Trp-Bpa4-Pro-azaGly-NH2) [^177Lu-BRU-2792]			1.28	
XRWSHXWXP (AA1 Sar; AA6 Darg; AA8 Bpa4; C-terminal Pro9-NHNH-DO3A10CM) [BRU-3074]	1.48			fold reduced binding against peptide 18 (BRU-3103) [4]: 5 to 6 fold
XRWSHXWXP (N-terminal DO3A10CM; Dnal2 at 1; Darg at 6; Bpa4 at 8; C-terminal Da15o3pt at 10) [BRU-2968]	0.24	0.24		EC50 [4]: 0.24 µM
DO3A10CM-[Sar]HWSH[dR]WP[azaGly]-NH2 (reading uncertain; also: 177Lu complexed by DO3A10CM, printed as 177Lu-DO3A10CM-Sar-His-Trp-Ser-His-Darg-Trp-azaG-NH2) [^177Lu-BRU-2767]			1.06	
XXHWSHXWXPX (177Lu held by the N-terminal DO3A10CM: 177Lu-DO3A10CM-Gly-Abz4-Sar-His-Trp-Ser-His-Darg-Trp-Bpa4-Pro-azaGly-NH2) [^177Lu-BRU-2696]			0.94	
XRWSHXWXP (Sar at 1; Darg at 6; Bpa4 at 8; C-terminal Bap14p linker carrying DO3A10CM) [BRU-3044]	0.24	0.24		
XRWSHXWX (Sar at 1; Darg at 6; Bpa4 at 8; Am2prd at 9 carrying DO3A10CM) [BRU-3117]	0.34	0.34		
XRWSHXWXP (Sar at 1; Darg at 6; Bpa4 at 8; C-terminal Bampy26 linker carrying DO3A10CM) [BRU-3080]	0.23	0.23		
DO3A10CM-G[d2Nal][dCfe4][d3Pal]SH[dR]WYP[dA]-NH2 (reading uncertain; also: 177Lu complexed by DO3A10CM, printed as 177Lu-DO3A10CM-Gly-Dnal2-Dcfe4-Dpal3-Ser-His-Darg-Trp-Tyr-Pro-Dala-NH2) [^177Lu-BRU-2644]			2.13	
XHWSHXWXP (as printed: Sar-H-W-S-H-Darg-W-Bpa4-P-Dae-DO3A10CM (C-terminal chelator)) [BRU-3079]	0.59			
XHWSHXWXPX (177Lu held by the N-terminal DO3A10CM: 177Lu-DO3A10CM-Sar-His-Trp-Ser-His-Darg-Trp-Bpa4-Pro-azaGly-NH2) [^177Lu-BRU-2443]			1.8	
XHWSHXWXPX (177Lu held by the N-terminal DO3A10CM: 177Lu-DO3A10CM-Sar-His-Trp-Ser-His-Darg-Trp-Dip-Pro-azaGly-NH2) [^177Lu-BRU-2721]			0.79	
XHWSHXWXPX (177Lu held by the N-terminal DO3A10CM: 177Lu-DO3A10CM-Meala-His-Trp-Ser-His-Darg-Trp-Bpa4-Pro-azaGly-NH2) [^177Lu-BRU-2736]			1.62	
XRWSHXWXP (Dnal2 at 1; Darg at 6; Bpa4 at 8; C-terminal Dabt14 linker carrying DO3A10CM) [BRU-3042]	0.2	0.2		
DO3A10CM-[Sar][His(1-Me)]WSH[dR]W[Bpa]P[azaGly]-NH2 (reading uncertain; also: 177Lu complexed by DO3A10CM, printed as 177Lu-DO3A10CM-Sar-His(1-Me)-Trp-Ser-His-Darg-Trp-Bpa4-Pro-azaGly-NH2) [^177Lu-BRU-2741]			1.35	

Binder	EC50 [1] [µM]	EC50 [2] [µM]	% Bound [3] [%]	other results
XRWSHXWXP (Ac-Dnal2 at 1; Darg at 6; Bpa4 at 8; C-terminal Da15o3pt linker carrying DO3A10CM) [BRU-2992]	0.47	0.47		
XFWSHXWXPX (177Lu held by the N-terminal DO3A10CM: 177Lu-DO3A10CM-Sar-Phe-Trp-Ser-His-Darg-Trp-Bpa4-Pro-azaGly-NH2) [^177Lu-BRU-2738]			1.41	
XHWSHXWXPX (177Lu held by the N-terminal DO3A10CM: 177Lu-DO3A10CM-Sar-His-Trp-Ser-His-Darg-Trp-Nal2-Pro-azaGly-NH2) [^177Lu-BRU-2624]			4.03	
DO3A10CM-[Sar]HWSH[dR]WYP[azaGly]-NH2 (reading uncertain; also: 177Lu complexed by DO3A10CM, printed as 177Lu-DO3A10CM-Sar-His-Trp-Ser-His-Darg-Trp-Tyr-Pro-azaGly-NH2) [^177Lu-BRU-2440]			0.21	
XHWSHXWXPX (DO3A10CM on N-terminus; AA1 Sar; AA6 Darg; AA8 Bpa4; AA10 azaGly-NH2) [BRU-2443]	0.95			EC50 [4]: 0.95 µM; fold improvement of EC50 against the Tyr8 analog (BRU-2758) [4]: 10 fold
XRWSHXWXP (Sar at 1; Darg at 6; Bpa4 at 8; C-terminal Dapt15 linker carrying DO3A10CM) [BRU-3085]	0.4	0.4		
XRWSHXWXP (Sar at 1; Darg at 6; Bpa4 at 8; C-terminal Maz4dahp17 linker carrying DO3A10CM) [BRU-3045]	0.21	0.21		
XRWSHXWXP (Sar at 1; Darg at 6; Bpa4 at 8; C-terminal Dae linker carrying DO3A10CM) [BRU-3103]	0.17	0.17		
DO3A10CM-[d2Nal][Afe4]WSH[dR]W[Bpa]P[azaGly]-NH2 (reading uncertain; also: 177Lu held by N-terminal DO3A10CM, printed as 177Lu-DO3A10CM-Dnal2-Afe4-Trp-Ser-His-Darg-Trp-Bpa4-Pro-azaGly-NH2) [^177Lu-BRU-2812]			5.8	
XRWSHXWXP (Sar at 1; Darg at 6; Bpa4 at 8; C-terminal Dabt14 linker carrying DO3A10CM) [BRU-3041]	0.36	0.36		
GXHWSHXWXPX (DO3A10CM-Gly (linker) on N-terminus; AA1 Sar; AA6 Darg; AA8 Bpa4; AA10 azaGly-NH2) [BRU-2717]	1.53			EC50 [4]: 1.55 µM
XHWSHXWXPX (177Lu held by the N-terminal DO3A10CM: 177Lu-DO3A10CM-Sar-His-Trp-Ser-His-Darg-Trp-Thy-Pro-azaGly-NH2) [^177Lu-BRU-2823]			1	
XRWSHXWXP (Sar at 1; Darg at 6; Bpa4 at 8; C-terminal Da18o36oc linker carrying DO3A10CM) [BRU-3043]	0.33	0.33		
XRWSHXWXP (Sar at 1; Darg at 6; Bpa4 at 8; C-terminal Ampip2 linker carrying DO3A10CM) [BRU-3102]	0.2	0.2		
XHWSHXWXPX (177Lu held by the N-terminal DO3A10CM: 177Lu-DO3A10CM-Dphe-His-Trp-Ser-His-Darg-Trp-Bpa4-Pro-azaGly-NH2) [^177Lu-BRU-2894]			3.4	
XHWSHXWXPX (177Lu held by the N-terminal DO3A10CM: 177Lu-DO3A10CM-Sar-His-Trp-Ser-His-Darg-Trp-Cfe4-Pro-azaGly-NH2) [^177Lu-BRU-2725]			0.41	
XRWSHXWXP (N-terminal DO3A10CM; Da48oa linker before 1; Dnal2 at 1; Darg at 6; Bpa4 at 8; C-terminal Da15o3pt at 10) [BRU-3100]	0.14	0.14		
XRWSHXWXP (AA1 Sar; AA6 Darg; AA8 Bpa4; C-terminal Pro9-M1daprp13-DO3A10CM) [BRU-3086]	1.02			fold reduced binding against peptide 18 (BRU-3103) [4]: 5 to 6 fold
DO3A10CM-G[Sar][dCfe4][d1Nal]S[Metyr][dK](Nicotinoyl)LK(iPr)P[dA]-NH2 (reading uncertain; also: 177Lu complexed by DO3A10CM, printed as 177Lu-DO3A10CM-Gly-Sar-Dcfe4-Dnal1-Ser-Metyr-Dlys(Nic)-Leu-Lys(isp)-Pro-Dala-NH2) [^177Lu-BRU-2613]			0.17	
XHWSHXWXPX (N-terminal DO3A10CM; Dnal1 at 1; Darg at 6; Bpa4 at 8; azaGly-NH2 at 10) [BRU-2869]	0.36	0.36		EC50 [4]: 0.36 µM
XHWSHXWXPX (177Lu held by the N-terminal DO3A10CM: 177Lu-DO3A10CM-Adoa-Adoa-Sar-His-Trp-Ser-His-Darg-Trp-Bpa4-Pro-azaGly-NH2) [^177Lu-BRU-2896]			0.7	
XRWSHXWXP (Dnal2 at 1; Darg at 6; Bpa4 at 8; C-terminal Da15o3pt linker carrying DO3A10CM) [BRU-2991]	0.21	0.21		
DO3A10CM-G[d1Nal]HWSH[dR]W[Bpa]P[azaGly]-NH2 (reading uncertain; also: 177Lu complexed by DO3A10CM, printed as 177Lu-DO3A10CM-Gly-Dnal1-His-Trp-Ser-His-Darg-Trp-Bpa4-Pro-azaGly-NH2) [^177Lu-BRU-2766]			10.3	
